Reference: US20110177501

Legend:
[1] = test system: AddAB helicase-nuclease (nuclease-deficient AddA D1172A, AddB D961A) AddA D1172A, AddB D961A (Bacillus subtilis); details: unwinding monitored with IDCC-SSB at low ionic strength (20 mM NaCl), 2 mM MgCl2, ATP, 37 C; weaker at 200 mM NaCl
[2] = target: 6-IATR-E. coli SSB (W88C) W88C (mature protein numbering as printed) (Escherichia coli) (UniProt P0AGE0); details: data not shown

## EcoRI-linearized pBR322
[1]
  activity (bp s-1 per binding site): 1000

## poly-dT
[2]
  activity (fold fluorescence (+/- DNA)): 4.5
